Results on ten substances are retold here after article PMC2656442.

Like-named read-outs stand apart in the source and are kept apart here. Where only a bound is given, the exact number is not on record here.

Test [1] addresses human Cdc42 (residues 1-191) (human) (UniProt P60953).
Test [2] addresses human RhoA (residues 1-193) (human) (UniProt P61586).
The target in test [3] is human Cdc42 (residues 1-191) (human) (UniProt P60953). The test can be described thus: ITC.
Test [4] has as its target human RhoA (residues 1-193) (human) (UniProt P61586). The test can be described thus: ITC.
Test [5] addresses human Cdc42 (residues 1-191) (human) (UniProt P60953). This is another data set of the same source.
In test [6] the target is human RhoA (residues 1-193) (human) (UniProt P61586). The source holds these as a separate data set.
In test [7] the target is human Cdc42 (residues 1-191) (human) (UniProt P60953). Briefly: ITC. The source holds these as a separate data set.
Test [8] concerns the target human RhoA (residues 1-193) (human) (UniProt P61586). Briefly: ITC. This is another data set of the same source.
Test [9] concerns the target human Rac1 (residues 1-192) (human) (UniProt P63000). The test can be described thus: ITC.

Sequence of UniProt P60953 (P60953 whole entry, the tested form may be a part): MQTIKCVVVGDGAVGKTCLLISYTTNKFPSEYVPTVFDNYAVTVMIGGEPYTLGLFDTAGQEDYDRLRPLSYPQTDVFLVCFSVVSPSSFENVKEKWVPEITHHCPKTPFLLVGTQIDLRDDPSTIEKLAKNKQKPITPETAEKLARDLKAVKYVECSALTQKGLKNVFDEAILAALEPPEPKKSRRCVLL
Sequence of UniProt P61586 (P61586 whole entry, the tested form may be a part): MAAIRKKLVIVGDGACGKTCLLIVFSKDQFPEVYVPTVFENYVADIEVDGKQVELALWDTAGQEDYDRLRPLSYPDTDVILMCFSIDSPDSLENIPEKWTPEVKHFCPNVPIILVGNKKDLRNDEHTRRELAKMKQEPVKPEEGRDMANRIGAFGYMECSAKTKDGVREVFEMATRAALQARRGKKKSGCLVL

With GAP^Graf N225A (domain or fragment), in test [1], the KM of GAP-stimulated GTP hydrolysis (MESG/PNP assay), GTP·Mg2+-loaded Cdc42 stood at 8 µM and the kcat/KM of GAP-stimulated GTP hydrolysis (MESG/PNP assay), GTP·Mg2+-loaded Cdc42 is 205000 M⁻¹ s⁻¹. In [2], the KM of GAP-stimulated GTP hydrolysis (MESG/PNP assay), GTP·Mg2+-loaded RhoA was 24.4 µM and the kcat/KM of GAP-stimulated GTP hydrolysis (MESG/PNP assay), GTP·Mg2+-loaded RhoA stood at 205000 M⁻¹ s⁻¹. In test [3], this substance registered a Ka of 1.56e+06 M⁻¹ and a dH of 9.85 kcal/mol. Besides, in test [4], the Ka came out at 303000 M⁻¹ and the dH was 10.7 kcal/mol.

For the substance GAP^Graf V224K (domain or fragment), in test [1], the KM of GAP-stimulated GTP hydrolysis (MESG/PNP assay), GTP·Mg2+-loaded Cdc42 stood at 10.2 µM and the kcat/KM of GAP-stimulated GTP hydrolysis (MESG/PNP assay), GTP·Mg2+-loaded Cdc42 was determined as 457000 M⁻¹ s⁻¹. Also, the KM of GAP-stimulated GTP hydrolysis (MESG/PNP assay), GTP·Mg2+-loaded RhoA in test [2] was determined as 10.3 µM. In test [3], this substance registered a Ka of 92000 M⁻¹ and a dH of 10.5 kcal/mol. In [4], the Ka turned out to be 338000 M⁻¹ and the dH was determined as 16.8 kcal/mol.

With “GAP domain of Graf (GTPase Regulator Associated with Focal Adhesion Kinase), wild type (domain or fragment)”, in test [5], the kcat of GAP-stimulated GTP hydrolysis (MESG/PNP assay), GTP·Mg2+-loaded Cdc42 worked out at 3.65 s⁻¹. Further, in test [6], the KM of GAP-stimulated GTP hydrolysis (MESG/PNP assay), GTP·Mg2+-loaded RhoA stood at 6.8 µM; the kcat of GAP-stimulated GTP hydrolysis (MESG/PNP assay), GTP·Mg2+-loaded RhoA was found to be 1.46 s⁻¹; the kcat/KM of GAP-stimulated GTP hydrolysis (MESG/PNP assay), GTP·Mg2+-loaded RhoA came out at 217000 M⁻¹ s⁻¹. Also, in [7], the Ka was 26100 M⁻¹ and the dH came to 5.47 kcal/mol. Further, in [8], the Ka came out at 33800 M⁻¹ and the dH stood at 1.6 kcal/mol. In test [3], this substance showed a Ka of 2.42e+06 M⁻¹, a dH of 15 kcal/mol and a stoichiometry N of 1. In test [9], this substance gave a fold lower KA than for Cdc42 (m1 with m18) of 100 fold and a fold lower KA than for RhoA (m1 with m19) greater than 20 fold. Further, in test [4], the Ka worked out at 554000 M⁻¹, the dH amounted to 13 kcal/mol and the stoichiometry N is 1.

For GAP^Graf V338A (domain or fragment), in [1], the KM of GAP-stimulated GTP hydrolysis (MESG/PNP assay), GTP·Mg2+-loaded Cdc42 came out at 5.9 µM and the kcat/KM of GAP-stimulated GTP hydrolysis (MESG/PNP assay), GTP·Mg2+-loaded Cdc42 came out at 243000 M⁻¹ s⁻¹. In test [2], the KM of GAP-stimulated GTP hydrolysis (MESG/PNP assay), GTP·Mg2+-loaded RhoA was found to be 31.3 µM and the kcat/KM of GAP-stimulated GTP hydrolysis (MESG/PNP assay), GTP·Mg2+-loaded RhoA was 26700 M⁻¹ s⁻¹. In test [3], the Ka was determined as 203000 M⁻¹ and the dH was found to be 16.9 kcal/mol. Also, in test [4], the Ka is 93000 M⁻¹ and the dH is 14.5 kcal/mol.

Turning to GAP^Graf I358A (domain or fragment), in [1], the KM of GAP-stimulated GTP hydrolysis (MESG/PNP assay), GTP·Mg2+-loaded Cdc42 came to 15 µM and the kcat/KM of GAP-stimulated GTP hydrolysis (MESG/PNP assay), GTP·Mg2+-loaded Cdc42 was found to be 333000 M⁻¹ s⁻¹. For the same substance, in test [2], the KM of GAP-stimulated GTP hydrolysis (MESG/PNP assay), GTP·Mg2+-loaded RhoA turned out to be 18.2 µM and the kcat/KM of GAP-stimulated GTP hydrolysis (MESG/PNP assay), GTP·Mg2+-loaded RhoA came to 41700 M⁻¹ s⁻¹. Also, in test [3], the Ka was 946000 M⁻¹ and the dH was 14 kcal/mol. For the same substance, in test [4], the Ka is 255000 M⁻¹ and the dH was 14.4 kcal/mol.

For the substance GAP^Graf V338L (domain or fragment), in test [1], the KM of GAP-stimulated GTP hydrolysis (MESG/PNP assay), GTP·Mg2+-loaded Cdc42 was found to be 2.4 µM and the kcat/KM of GAP-stimulated GTP hydrolysis (MESG/PNP assay), GTP·Mg2+-loaded Cdc42 was found to be 522000 M⁻¹ s⁻¹. Also, in test [2], the KM of GAP-stimulated GTP hydrolysis (MESG/PNP assay), GTP·Mg2+-loaded RhoA came to 8.7 µM and the kcat/KM of GAP-stimulated GTP hydrolysis (MESG/PNP assay), GTP·Mg2+-loaded RhoA worked out at 33300 M⁻¹ s⁻¹. In test [3], this substance displayed a Ka of 1.18e+06 M⁻¹ and a dH of 15.9 kcal/mol. For the same substance, in test [4], the Ka amounted to 220000 M⁻¹ and the dH worked out at 9.8 kcal/mol.

As for GAP^Graf E253K (domain or fragment), in [1], the KM of GAP-stimulated GTP hydrolysis (MESG/PNP assay), GTP·Mg2+-loaded Cdc42 is 10.2 µM and the kcat/KM of GAP-stimulated GTP hydrolysis (MESG/PNP assay), GTP·Mg2+-loaded Cdc42 was 457000 M⁻¹ s⁻¹. Besides, in [2], the KM of GAP-stimulated GTP hydrolysis (MESG/PNP assay), GTP·Mg2+-loaded RhoA worked out at 8.8 µM and the kcat/KM of GAP-stimulated GTP hydrolysis (MESG/PNP assay), GTP·Mg2+-loaded RhoA was determined as 413000 M⁻¹ s⁻¹. In test [3], the Ka was determined as 445000 M⁻¹ and the dH came out at 10.5 kcal/mol. In test [4], this substance displayed a Ka of 643000 M⁻¹ and a dH of 12 kcal/mol.

GAP^Graf R266A (domain or fragment): in test [1], the KM of GAP-stimulated GTP hydrolysis (MESG/PNP assay), GTP·Mg2+-loaded Cdc42 is 11 µM and the kcat/KM of GAP-stimulated GTP hydrolysis (MESG/PNP assay), GTP·Mg2+-loaded Cdc42 came to 278000 M⁻¹ s⁻¹. For the same substance, in test [2], the KM of GAP-stimulated GTP hydrolysis (MESG/PNP assay), GTP·Mg2+-loaded RhoA amounted to 25 µM and the kcat/KM of GAP-stimulated GTP hydrolysis (MESG/PNP assay), GTP·Mg2+-loaded RhoA was determined as 48300 M⁻¹ s⁻¹. In test [3], this substance registered a Ka of 773000 M⁻¹ and a dH of 13.8 kcal/mol. For the same substance, in [4], the Ka is 93000 M⁻¹ and the dH stood at 10.3 kcal/mol.

In the case of GAP^Graf E253A (domain or fragment), in test [1], the KM of GAP-stimulated GTP hydrolysis (MESG/PNP assay), GTP·Mg2+-loaded Cdc42 was 19.9 µM and the kcat/KM of GAP-stimulated GTP hydrolysis (MESG/PNP assay), GTP·Mg2+-loaded Cdc42 came out at 532000 M⁻¹ s⁻¹. Also, in test [2], the KM of GAP-stimulated GTP hydrolysis (MESG/PNP assay), GTP·Mg2+-loaded RhoA was 11.3 µM and the kcat/KM of GAP-stimulated GTP hydrolysis (MESG/PNP assay), GTP·Mg2+-loaded RhoA was 330000 M⁻¹ s⁻¹. In test [3], this substance registered a Ka of 298000 M⁻¹ and a dH of 7.48 kcal/mol. In test [4], this substance showed a Ka of 456000 M⁻¹ and a dH of 10.1 kcal/mol.

As to GAP^Graf I358E (domain or fragment), the KM of GAP-stimulated GTP hydrolysis (MESG/PNP assay), GTP·Mg2+-loaded Cdc42 in test [1] was 12.4 µM. In addition, in test [3], the Ka was determined as 97000 M⁻¹ and the dH worked out at 4.64 kcal/mol. In test [4], the Ka was 33000 M⁻¹ and the dH was found to be 3.92 kcal/mol.
